How the values were obtained:
[1] = biological target: T1, MORF (His6-HA epitope-ZZ protein A)-tagged Msn5 (S. cerevisiae, UniProt P52918 1-1224); assay: co-IP; cells with locked RanGTP, formaldehyde cross-linked; extract treated with RNase A prior to purification of the beta-importin on IgG beads; Western blot with anti-eEF1A; conditions: partners not purified
T1 construct: Msn5, beta-importin family member (yeast exportin-5 homolog), S. cerevisiae; Tagged protein is functional; also called Msn5-M; exportin-5 homolog; source: S. cerevisiae, endogenous promoter on a yeast episomal (YEp) vector, in cell extract
T1 sequence (looked up): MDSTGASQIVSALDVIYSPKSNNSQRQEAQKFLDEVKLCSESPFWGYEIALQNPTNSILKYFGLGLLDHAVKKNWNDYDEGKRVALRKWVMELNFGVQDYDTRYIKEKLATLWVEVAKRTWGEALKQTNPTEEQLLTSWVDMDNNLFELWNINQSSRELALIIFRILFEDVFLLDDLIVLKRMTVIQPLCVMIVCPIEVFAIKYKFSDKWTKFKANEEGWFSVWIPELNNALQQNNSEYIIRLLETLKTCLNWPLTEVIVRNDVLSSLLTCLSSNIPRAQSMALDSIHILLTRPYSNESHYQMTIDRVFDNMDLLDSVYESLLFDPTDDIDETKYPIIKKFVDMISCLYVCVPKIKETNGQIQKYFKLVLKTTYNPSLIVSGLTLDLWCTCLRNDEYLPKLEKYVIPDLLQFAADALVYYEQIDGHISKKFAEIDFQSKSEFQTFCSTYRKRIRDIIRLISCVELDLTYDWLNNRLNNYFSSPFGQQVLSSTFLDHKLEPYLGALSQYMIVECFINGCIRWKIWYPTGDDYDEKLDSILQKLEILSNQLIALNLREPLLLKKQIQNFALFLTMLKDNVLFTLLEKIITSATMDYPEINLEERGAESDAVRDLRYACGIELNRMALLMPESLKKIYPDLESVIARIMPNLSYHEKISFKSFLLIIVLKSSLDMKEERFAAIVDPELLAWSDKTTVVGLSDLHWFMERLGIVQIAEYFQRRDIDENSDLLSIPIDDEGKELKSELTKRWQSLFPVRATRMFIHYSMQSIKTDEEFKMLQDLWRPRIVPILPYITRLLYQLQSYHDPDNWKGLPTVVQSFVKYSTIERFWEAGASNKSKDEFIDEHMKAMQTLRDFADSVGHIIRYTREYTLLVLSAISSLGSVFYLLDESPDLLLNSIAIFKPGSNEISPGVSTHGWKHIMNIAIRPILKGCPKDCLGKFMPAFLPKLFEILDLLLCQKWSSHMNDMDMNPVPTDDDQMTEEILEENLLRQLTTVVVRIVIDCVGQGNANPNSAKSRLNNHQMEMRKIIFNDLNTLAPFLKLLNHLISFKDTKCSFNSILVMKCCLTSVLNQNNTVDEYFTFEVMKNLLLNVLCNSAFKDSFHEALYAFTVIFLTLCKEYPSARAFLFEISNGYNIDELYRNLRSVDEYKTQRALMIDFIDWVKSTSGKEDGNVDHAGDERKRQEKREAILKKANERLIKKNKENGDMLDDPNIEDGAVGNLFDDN

[2] = biological target: T1, MORF (His6-HA epitope-ZZ protein …); assay: co-IP; cells with RanGTP-locked mutant, without cross-linking; complex immunoprecipitated on beads first and then treated with RNase A (condition R*); Western blot with anti-eEF1A; conditions: partners not purified

B1: untagged Tef2 (natural protein, S. cerevisiae (endogenous in yeast), UniProt P02994 1-458, looked up)
chain: MGKEKSHINVVVIGHVDSGKSTTTGHLIYKCGGIDKRTIEKFEKEAAELGKGSFKYAWVLDKLKAERERGITIDIALWKFETPKYQVTVIDAPGHRDFIKNMITGTSQADCAILIIAGGVGEFEAGISKDGQTREHALLAFTLGVRQLIVAVNKMDSVKWDESRFQEIVKETSNFIKKVGYNPKTVPFVPISGWNGDNMIEATTNAPWYKGWEKETKAGVVKGKTLLEAIDAIEQPSRPTDKPLRLPLQDVYKIGGIGTVPVGRVETGVIKPGMVVTFAPAGVTTEVKSVEMHHEQLEQGVPGDNVGFNVKNVSVKEIRRGNVCGDAKNDPPKGCASFNATVIVLNHPGQISAGYSPVLDCHTAHIACRFDELLEKNDRRSGKKLEDHPKFLKSGDAALVKFVPSKPMCVEAFSEYPPLGRFAVRDMRQTVAVGVIKSVDKTEKAAKVTKAAQKAAKK
notes: Tef2, yeast translation elongation factor 1 alpha (eEF1A), product of TEF2; Detected with anti-eEF1A; comigrates with Tef1-Myc; also called Tef1/2; eEF1A; source: endogenous, S. cerevisiae cell extract
For B1, the “percent of copurified Tef1/2 relative to mock treatment” value [1] was roughly 90% and the “percent of copurified Tef1/2 relative to mock treatment” value [2] was roughly 40%.

B2: endogenously 3Myc-tagged Tef1 (natural protein, S. cerevisiae, UniProt P02994 1-458, looked up)
chain: MGKEKSHINVVVIGHVDSGKSTTTGHLIYKCGGIDKRTIEKFEKEAAELGKGSFKYAWVLDKLKAERERGITIDIALWKFETPKYQVTVIDAPGHRDFIKNMITGTSQADCAILIIAGGVGEFEAGISKDGQTREHALLAFTLGVRQLIVAVNKMDSVKWDESRFQEIVKETSNFIKKVGYNPKTVPFVPISGWNGDNMIEATTNAPWYKGWEKETKAGVVKGKTLLEAIDAIEQPSRPTDKPLRLPLQDVYKIGGIGTVPVGRVETGVIKPGMVVTFAPAGVTTEVKSVEMHHEQLEQGVPGDNVGFNVKNVSVKEIRRGNVCGDAKNDPPKGCASFNATVIVLNHPGQISAGYSPVLDCHTAHIACRFDELLEKNDRRSGKKLEDHPKFLKSGDAALVKFVPSKPMCVEAFSEYPPLGRFAVRDMRQTVAVGVIKSVDKTEKAAKVTKAAQKAAKK
notes: Tef1, yeast translation elongation factor 1 alpha (eEF1A), product of TEF1; Detected with anti-eEF1A and anti-Myc; comigrates with untagged Tef2, so the anti-eEF1A signal called Tef1/2 is of both; also called Tef1-Myc; Tef1/2; source: endogenously tagged, S. cerevisiae cell extract
With B2 the “percent of copurified Tef1/2 relative to mock treatment” value [1] was roughly 90% and the “percent of copurified Tef1/2 relative to mock treatment” value [2] was roughly 40%.
